Substitutions are numbered along the chain they refer to. Values belong to the binder of their own block, whether it stands above or below them.
Key:
[1] = biological target: T1, histidine-tagged human Siglec-7 (NovoProtein) (human, UniProt Q9Y286 19-353); assay: BLI, antibody captured
T1 construct: Bought protein; also called recombinant human Siglec-7; recombinant Siglec-7; not shown: histidine tag
Experimental: In this assay, the humanized antibodies were compared directly to S7AB. Briefly, the antibodies were captured on anti-human or anti-mouse IgG Fc Biosensors (Pall ForteBio). Varying concentrations (0-100 nM) of histidine-tagged human Siglec-7 (NovoProtein) were then bound to the captured anti-Siglec-7 surface (200 s association time, 900 s dissociation time). Multi-concentration kinetic analysis was performed using a 1:1 interaction model to extract association and dissociation rate constants (kₐ and kd, respectively) for each antibody. Apparent affinity constants (KD) were calculated from the ratio kd/kₐ.
The affinities of S7AB-H8 and variants S7AB-H8.1 through S7AB-H8.45 for human Siglec-7 were measured by BioLayer Interferometry according to the method described in Example 1 above.

[2] = biological target: human Siglec-7 on primary human monocyte-derived dendritic cells (human, UniProt Q9Y286 19-467); assay: cell-based or functional assay
Chain of human Siglec-7 on primary human monocyte-derived dendritic cells (Q9Y286 19-467): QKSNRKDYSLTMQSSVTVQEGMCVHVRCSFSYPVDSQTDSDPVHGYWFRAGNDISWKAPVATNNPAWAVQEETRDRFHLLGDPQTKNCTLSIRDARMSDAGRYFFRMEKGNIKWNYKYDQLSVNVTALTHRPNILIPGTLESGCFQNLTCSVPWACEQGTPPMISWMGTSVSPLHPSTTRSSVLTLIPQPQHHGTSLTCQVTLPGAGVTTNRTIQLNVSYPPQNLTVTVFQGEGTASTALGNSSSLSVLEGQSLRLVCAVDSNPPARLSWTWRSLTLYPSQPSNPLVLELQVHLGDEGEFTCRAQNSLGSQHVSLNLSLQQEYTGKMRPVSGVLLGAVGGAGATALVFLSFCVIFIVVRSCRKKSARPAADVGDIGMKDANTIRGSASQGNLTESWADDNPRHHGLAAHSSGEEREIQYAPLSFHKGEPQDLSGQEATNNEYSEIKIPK

T1 sequence (Q9Y286 19-353 limits assumed): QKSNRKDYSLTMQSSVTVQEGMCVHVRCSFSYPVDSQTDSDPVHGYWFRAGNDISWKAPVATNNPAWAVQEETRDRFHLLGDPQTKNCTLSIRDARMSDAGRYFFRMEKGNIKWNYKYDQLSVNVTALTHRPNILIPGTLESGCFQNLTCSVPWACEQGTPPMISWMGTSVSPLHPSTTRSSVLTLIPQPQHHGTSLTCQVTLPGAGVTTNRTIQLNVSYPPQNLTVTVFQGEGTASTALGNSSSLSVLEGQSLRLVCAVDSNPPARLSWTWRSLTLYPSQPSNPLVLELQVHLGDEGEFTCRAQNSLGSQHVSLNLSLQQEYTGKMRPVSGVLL

Kd [1]: 0.574 nM
fold improvement over S7AB-H8 [1]: 1.8 fold
koff [1]: 7.05e-05 s⁻¹
kon [1]: 123000 M⁻¹ s⁻¹
Fold increase in potency compared to AB-H8 [2]: 2.9 fold
Fold increase in potency compared to Chimeric Ab [2]: 8.7 fold
Maximal downregulation (% Siglec-7 remaining) [2]: 10.9%
Receptor downregulation, (EC50) (pM) [2]: 117 pM
B1: S7AB-H8.1 (antibody, V domains shown)
VH: QVQLVQSGAEVKKPGASVKVSCKASGYAFTETWMNWVRQAPGQGLEWIGRIFPGLGHTNYAQKFQGRATLTEDTSTSTAYMELSSLRSEDTAVYYCARDYSDYYFDYWGQGTLVTVSS
VL: DIQMTQSPSSLSASVGDRVTITCRGSQDINTYLNWYQQKPGKAPKLLIYYTSRLHSGVPSRFSGSGSGTDYTLTISSLQPEDFATYYCQQGNLLPWTFGQGTKLEIK

Kd [1]: 0.227 nM
fold improvement over S7AB-H8 [1]: 4.6 fold
koff [1]: 3.23e-05 s⁻¹
kon [1]: 142000 M⁻¹ s⁻¹
Fold increase in potency compared to AB-H8 [2]: 3.9 fold
Fold increase in potency compared to Chimeric Ab [2]: 11.8 fold
Maximal downregulation (% Siglec-7 remaining) [2]: 3.3%
Receptor downregulation, (EC50) (pM) [2]: 87 pM
B2: S7AB-H8.2 (antibody, V domains shown)
VH: B1 VH with E31M, T32A, L55Y
VL: B1 VL

Kd [1]: 0.214 nM
fold improvement over S7AB-H8 [1]: 4.9 fold
koff [1]: 3.15e-05 s⁻¹
kon [1]: 147000 M⁻¹ s⁻¹
Fold increase in potency compared to AB-H8 [2]: 4.3 fold
Fold increase in potency compared to Chimeric Ab [2]: 12.9 fold
Maximal downregulation (% Siglec-7 remaining) [2]: 4.5%
Receptor downregulation, (EC50) (pM) [2]: 79.5 pM
B3: S7AB-H8.4 (antibody, V domains shown)
VH: B1 VH with E31A, T32A
VL: B1 VL

Kd [1]: 124 nM
fold improvement over S7AB-H8 [1]: 0.01 fold
koff [1]: 0.000388 s⁻¹
kon [1]: 3140 M⁻¹ s⁻¹
Fold increase in potency compared to AB-H8 [2]: 0.05 fold
Fold increase in potency compared to Chimeric Ab [2]: 0.1 fold
Maximal downregulation (% Siglec-7 remaining) [2]: 74.7%
Receptor downregulation, (EC50) (pM) [2]: 7140 pM
B4: S7AB-H8.11 (antibody, V domains shown)
VH: B1 VH
VL: B1 VL with Q90G, L93T

Kd [1]: 0.294 nM
fold improvement over S7AB-H8 [1]: 3.6 fold
koff [1]: 6.05e-05 s⁻¹
kon [1]: 206000 M⁻¹ s⁻¹
Fold increase in potency compared to AB-H8 [2]: 3.8 fold
Fold increase in potency compared to Chimeric Ab [2]: 11.5 fold
Maximal downregulation (% Siglec-7 remaining) [2]: 20.1%
Receptor downregulation, (EC50) (pM) [2]: 89.2 pM
B5: S7AB-H8.3 (antibody, V domains shown)
VH: B1 VH with E31G, T32Y
VL: B1 VL

Kd [1]: 0.371 nM
fold improvement over S7AB-H8 [1]: 2.8 fold
koff [1]: 6.33e-05 s⁻¹
kon [1]: 171000 M⁻¹ s⁻¹
Fold increase in potency compared to AB-H8 [2]: 3.8 fold
Fold increase in potency compared to Chimeric Ab [2]: 11.4 fold
Maximal downregulation (% Siglec-7 remaining) [2]: 19.2%
Receptor downregulation, (EC50) (pM) [2]: 89.8 pM
B6: S7AB-H8.8 (antibody, V domains shown)
VH: B1 VH with E31G, T32Y
VL: B1 VL with L93T, L94K

Kd [1]: 0.62 nM
fold improvement over S7AB-H8 [1]: 1.7 fold
koff [1]: 4.19e-05 s⁻¹
kon [1]: 67600 M⁻¹ s⁻¹
Fold increase in potency compared to AB-H8 [2]: 4 fold
Fold increase in potency compared to Chimeric Ab [2]: 12.1 fold
Maximal downregulation (% Siglec-7 remaining) [2]: 2.1%
Receptor downregulation, (EC50) (pM) [2]: 84.7 pM
B7: S7AB-H8.7 (antibody, V domains shown)
VH: B1 VH with E31M, T32A, L55Y
VL: B1 VL with L93T, L94K

Kd [1]: 2.24 nM
fold improvement over S7AB-H8 [1]: 0.5 fold
koff [1]: 5.71e-05 s⁻¹
kon [1]: 25500 M⁻¹ s⁻¹
Fold increase in potency compared to AB-H8 [2]: 2.2 fold
Fold increase in potency compared to Chimeric Ab [2]: 6.6 fold
Maximal downregulation (% Siglec-7 remaining) [2]: 7.2%
Receptor downregulation, (EC50) (pM) [2]: 154 pM
B8: S7AB-H8.6 (antibody, V domains shown)
VH: B1 VH
VL: B1 VL with L93T, L94K

Kd [1]: 2.53 nM
fold improvement over S7AB-H8 [1]: 0.4 fold
koff [1]: 0.000165 s⁻¹
kon [1]: 65400 M⁻¹ s⁻¹
Fold increase in potency compared to AB-H8 [2]: 1 fold
Fold increase in potency compared to Chimeric Ab [2]: 2.9 fold
Maximal downregulation (% Siglec-7 remaining) [2]: 10.1%
Receptor downregulation, (EC50) (pM) [2]: 348 pM
B9: S7AB-H8.16 (antibody, V domains shown)
VH: B1 VH
VL: B1 VL with I29T, L93T

Kd [1]: 54.1 nM
fold improvement over S7AB-H8 [1]: 0.02 fold
koff [1]: 0.000176 s⁻¹
kon [1]: 3260 M⁻¹ s⁻¹
Fold increase in potency compared to AB-H8 [2]: 0.2 fold
Fold increase in potency compared to Chimeric Ab [2]: 0.5 fold
Maximal downregulation (% Siglec-7 remaining) [2]: 45.7%
Receptor downregulation, (EC50) (pM) [2]: 1950 pM
B10: S7AB-H8.14 (antibody, V domains shown)
VH: B1 VH with E31A, T32A
VL: B1 VL with Q90G, L93T

Kd [1]: 46.3 nM
fold improvement over S7AB-H8 [1]: 0.02 fold
koff [1]: 0.000155 s⁻¹
kon [1]: 3350 M⁻¹ s⁻¹
Fold increase in potency compared to AB-H8 [2]: 0.01 fold
Fold increase in potency compared to Chimeric Ab [2]: 0.04 fold
Maximal downregulation (% Siglec-7 remaining) [2]: 61.3%
Receptor downregulation, (EC50) (pM) [2]: 25400 pM
B11: S7AB-H8.12 (antibody, V domains shown)
VH: B1 VH with E31M, T32A, L55Y
VL: B1 VL with Q90G, L93T

Kd [1]: 35.7 nM
fold improvement over S7AB-H8 [1]: 0.03 fold
koff [1]: 0.000303 s⁻¹
kon [1]: 8500 M⁻¹ s⁻¹
Fold increase in potency compared to AB-H8 [2]: 0.1 fold
Fold increase in potency compared to Chimeric Ab [2]: 0.5 fold
Maximal downregulation (% Siglec-7 remaining) [2]: 43.3%
Receptor downregulation, (EC50) (pM) [2]: 2270 pM
B12: S7AB-H8.13 (antibody, V domains shown)
VH: B1 VH with E31G, T32Y
VL: B1 VL with Q90G, L93T

Kd [1]: 0.351 nM
fold improvement over S7AB-H8 [1]: 3 fold
koff [1]: 4.08e-05 s⁻¹
kon [1]: 116000 M⁻¹ s⁻¹
Fold increase in potency compared to AB-H8 [2]: 3.9 fold
Fold increase in potency compared to Chimeric Ab [2]: 11.8 fold
Maximal downregulation (% Siglec-7 remaining) [2]: 9.5%
Receptor downregulation, (EC50) (pM) [2]: 87 pM
B13: S7AB-H8.5 (antibody, V domains shown)
VH: B1 VH with T32A, L55Y
VL: B1 VL

Kd [1]: 1.62 nM
fold improvement over S7AB-H8 [1]: 0.6 fold
koff [1]: 8.14e-05 s⁻¹
kon [1]: 50400 M⁻¹ s⁻¹
Fold increase in potency compared to AB-H8 [2]: 1.7 fold
Fold increase in potency compared to Chimeric Ab [2]: 5.2 fold
Maximal downregulation (% Siglec-7 remaining) [2]: 7%
Receptor downregulation, (EC50) (pM) [2]: 197 pM
B14: S7AB-H8.10 (antibody, V domains shown)
VH: B1 VH with T32A, L55Y
VL: B1 VL with L93T, L94K

Kd [1]: 0.527 nM
fold improvement over S7AB-H8 [1]: 2 fold
koff [1]: 4.82e-05 s⁻¹
kon [1]: 91400 M⁻¹ s⁻¹
Fold increase in potency compared to AB-H8 [2]: 2.9 fold
Fold increase in potency compared to Chimeric Ab [2]: 8.8 fold
Maximal downregulation (% Siglec-7 remaining) [2]: 3.1%
Receptor downregulation, (EC50) (pM) [2]: 116 pM
B15: S7AB-H8.9 (antibody, V domains shown)
VH: B1 VH with E31A, T32A
VL: B1 VL with L93T, L94K

Kd [1]: 2.6 nM
fold improvement over S7AB-H8 [1]: 0.4 fold
koff [1]: 0.000607 s⁻¹
kon [1]: 233000 M⁻¹ s⁻¹
Maximal downregulation (% Siglec-7 remaining) [2]: 85%
Receptor downregulation, (EC50) (pM) [2]: > 3000 pM
B16: S7AB-H8.15 (antibody, V domains shown)
VH: B1 VH with T32A, L55Y
VL: B1 VL with Q90G, L93T
